Values of other authors, collected in article PMC8894873.

Molecular target: Glu35 (UniProt position 53, CAAKFESNFNT)
Assay: not stated (a cited reference title indicates two-dimensional 1H NMR)

Substance: Lysozyme (lysozyme C, presumably hen egg-white) (Gallus gallus (inferred; the article says only 'lysozyme'))
- pKa: 6.3
